Test [1] deals with T1, SARS-CoV-2 Spike Protein (RBD)(R319-F541).mmH (SARS-CoV-2). The test can be described thus: Luminex bead binding, supernatant. The conditions noted are these: remark: other sources report otherwise.
Test [2] concerns the target T1, SARS-CoV-2 Spike Protein …. The test can be described thus: Luminex bead binding, supernatant. The note with it: remark: other sources report otherwise. This is another data set of the same source.

Binding signal (MFI) data for four molecules are collected here from patent publication US20240043504A1.

Substitutions are numbered along the chain they refer to.

B1: mAb10998 (antibody, V domains shown)
VH: EVQLVESGGGLVHPGGSLRLSCAASGLTVSSNYMSWVRQAPGKGLEWVSVIYSGGSTYYADSVKGRFTISRHNSKNTLFLQMNSLRAEDTAVYYCARDRPITGTTLDVWGQGTTVTVSS
VL: DIQMTQSPSSLFASVGDRVTITCRASQSISSYLNWYQQKPGKAPKLLIYAASSLQSGVPSRFSGSGSGTDFTLTISSLQPEDFAFYYCQQTYSTPPITFGQGTRLEIK
For B1, the Binding signal (MFI) in test [1] is 1850 MFI; in test [2] it was 3840 MFI.

B2: mAb11004 (antibody, V domains shown)
VH: QVQLVESGGGVVQPGRSLRLSCVASGFTFSIYGMDWVRQAPGKGLEWVAVISYDGSNKYYADSVKGRFTISRDNSKNTLYLQMNSLRPEDTAVYYCAKDREAAADAFDIWGQGTMVTVSS
VL: DIQMTQSPSSVSASVGDRVTITCRASQGISSWLAWYQQKPGKAPKLLIYAASSLHSGVPSRFSGSGSGTDFTLTISSLQPEDFATYYCQQANSFRLTFGGGTKVEIK
Consider B2, for which the Binding signal (MFI) turned out to be 3350 MFI in test [1] and 11300 MFI in test [2].

B3: mAb11006 (antibody, V domains shown)
VH: EVQLVESGGGLVQPGGSLRLSCAASGFIVSRNYMSWVRQAPGKGLEWVSVIYSGGSTFYADSVKGRFTISRHNSKNTLYLQMNSLKAEDTAVYYCARELRGYFDYWGQGTLVTVSS
VL: DIQLTQSPSFLSASVGDRVTITCWASQGISSYLAWYQQKPGKAPKLLIYAASTLQSGVPSRFSGSGSGTEFTLTISSLQPEDFATYYCQLLNSYPYTFGQGTKLEIK
In the case of B3, the results for the Binding signal (MFI) in test [1] and in test [2] were 5130 MFI and 4740 MFI, respectively.

B4: mAb11008 (antibody, V domains shown)
VH: EVQLVESGGGLVQPGGSLRLSCAASGFTVSSNYMTWVRQAPGKGLEWVSVIYSGGSTFYADSVKGRFTISRHNSENTLYLQMNSLRAEDTAVYYCARDLAAAGTDYWGQGALVTVSS
VL: B3 VL with E81D, L90H, P95L
Consider B4, for which the Binding signal (MFI) in test [1] amounted to 4050 MFI; in test [2], 3180 MFI.
